Experimental data as given in patent publication US20140242093A1, “METHODS AND COMPOSITIONS FOR MODULATING THE INNATE IMMUNE RESPONSE AND/OR MYOGENESIS IN A MAMMALIAN SUBJECT” (FRED HUTCHINSON CANCER RESEARCH CENTER, priority 2011, published 2014).

System: control human primary myoblasts
Test: Expression microarray of primary myoblasts transduced with lentivirus carrying DUX4-fl, DUX4-s or GFP
Procedure: Primary human myoblasts were collected and cultured as previously described (Snider et al., 2010). Primary myoblasts were maintained at or below 70% confluency for proliferation. For differentiation, cells were allowed to reach 95-100% confluency in growth medium. Once confluency was reached, the cells were changed to differentiation medium (F10 media supplemented with 1% horse serum, 10 μg/mL insulin, and 10 μg/mL transferrin, penicillin/streptomycin) and maintained for 4 days. Human RD cells were grown in DMEM in 10% bovine calf serum (Hyclone) and penicillin/streptomycin. The primary myoblasts were transduced with lentivirus carrying DUX-fl, DUX4- or GFP (MOI=15).
Expression microarrays were performed on the transduced cells at 24 hours after transduction as follows. […] Samples were analyzed by Illumina Human Whole Genome microarrays. Probe intensities were corrected, normalized, and summarized by the Lumi package of Bioconductor (Du et al., 2008). Differentially expressed genes were identified by the LIMMA package of Bioconductor (Wettenhall and Smyth, 2004). Gene set enrichment analysis (GSEA) was performed using the Bioconductor GOstats package (Falcon and Gentleman, 2007).

B1: DUX4-s: short splice form of DUX4 (SEQ ID NO:112), keeps the double-homeobox domains, lacks the C-terminal activation domain (protein, listed as Homo sapiens)
chain: MALPTPSDSTLPAEARGRGRRRRLVWTPSQSEALRACFERNPYPGIATRERLAQAIGIPEPRVQIWFQNERSRQLRQHRRESRPWPGRRGPPEGRRKRTAVTGSQTALLLRAFEKDRFPGIAAREELARETGLPESRIQIWFQNRRARHPGQGGRAPAQV
fc of XPO1 (expression array) (Refseq NM_003400.3): −0.2325 | fc of ZFP36 (expression array) (Refseq NM_003407.2): 0.2317 | ZKSCAN1 fc (Refseq NM_003439.1): 0.3802 | fc of Cxorfl2 (expression array) (Refseq NM_003492.1): 0.03462 | fc of TAGLN2 (expression array) (Refseq NM_003564.1): 0.05495 | fc of EEA1 (expression array) (Refseq NM_003566.2): 1.034 | IFITM1 expression fc (Refseq NM_003641.3, cultured human skeletal muscle): 0.3441 | fc of VAMP8 (expression array) (Refseq NM_003761.2): 0.002691 | fc of VAMP4 (expression array) (Refseq NM_003762.3): 0.4731 | RNGTT expression fc (Refseq NM_003800.3): −0.5916 | RIPK1 fc (Refseq NM_003804.3): −0.2407 | TNFSF10 fc (Refseq NM_003810.2): 2.972 | TNFRSF14 expression fc (Refseq NM_003820.2, cultured human skeletal muscle): 0.5666 | fc of RIOK3 (expression array) (Refseq NM_003831.2): 1.133 | TNFRSF10A fc (Refseq NM_003844.2): 0.8441 | PEX11B fc (Refseq NM_003846.1): −0.2212 | CES2 expression fc (Refseq NM_003869.4, cultured human skeletal muscle): 0.06106 | CFLAR expression fc (Refseq NM_003879.3, cultured human skeletal muscle): 0.5313 | fc of ASAP2 (expression array) (Refseq NM_003887.2): −0.3423 | CCNA1 expression fc (Refseq NM_003914.2): 1.884 | fc of USP13 (expression array) (Refseq NM_003940.2): −1.038 | NPR2 fc (Refseq NM_003995.3): −0.04506 | fc of OSMR (expression array) (Refseq NM_003999.1): 1.118 | CHI3L2 expression fc (Refseq NM_004000.2, cultured human skeletal muscle): 0.2573 | IRF7 expression fc (Refseq NM_004029.2, cultured human skeletal muscle): 1.137 | CRY1 expression fc (Refseq NM_004075.2): −0.1268 | PSPN expression fc (Refseq NM_004158.2): −0.03876 | BEST1 fc (Refseq NM_004183.2): 0.2661 | UBE2L6 expression fc (Refseq NM_004223.3, cultured human skeletal muscle): 0.5808 | fc of STK17B (expression array) (Refseq NM_004226.2): 1.309 | fc of SLC9A3R1 (expression array) (Refseq NM_004252.2): −0.06339 | BST2 expression fc (Refseq NM_004335.2, cultured human skeletal muscle): 0.21 | CREB1 fc (Refseq NM_004379.2): −0.08534 | fc of HOXB7 (expression array) (Refseq NM_004502.3): −0.06124 | SP110 expression fc (Refseq NM_004510.2, cultured human skeletal muscle): 1.154 | PSPH fc (Refseq NM_004577.3): 0.005654 | XPC expression fc (Refseq NM_004628.3, cultured human skeletal muscle): 0.2629 | PABPN1 expression fc (Refseq NM_004643.1): −0.2585 | MAP3K6 fc (Refseq NM_004672.3): −0.2268 | fc of SLC16A5 (expression array) (Refseq NM_004695.2): −0.03968 | fc of SFRS2IP (expression array) (Refseq NM_004719.2): −1.068 | fc of ARHGEF2 (expression array) (Refseq NM_004723.2): −0.07136 | TIAF1 fc (Refseq NM_004740.3): −0.5294 | NOLC1 expression fc (Refseq NM_004741.1): 0.4977 | SLIT2 expression fc (Refseq NM_004787.1): 0.8501 | LPXN fc (Refseq NM_004811.1): −0.0176 | PEX16 fc (Refseq NM_004813.1): 0.02427 | C9orf61 expression fc (Refseq NM_004816.2): −0.2563 | MED26 expression fc (Refseq NM_004831.3): 0.1371 | fc of GSTO1 (expression array) (Refseq NM_004832.1): 0.3142 | fc of LITAF (expression array) (Refseq NM_004862.2): 1.12 | fc of SCAMPI (expression array) (Refseq NM_004866.4): 1.369 | fc of APBA3 (expression array) (Refseq NM_004886.3): 0.001776 | SERPINI1 expression fc (Refseq NM_005025.3): 0.0354 | TRIM25 expression fc (Refseq NM_005082.4, cultured human skeletal muscle): 0.5139 | SFRS17A expression fc (Refseq NM_005088.2): 0.2404 | ISG15 expression fc (Refseq NM_005101.1, cultured human skeletal muscle): 0.128 | MVP fc (Refseq NM_005115.3): −0.1162 | MED13 expression fc (Refseq NM_005121.2): 0.0264 | fc of REC8 (expression array) (Refseq NM_005132.2): −0.244 | ATP6V0A1 fc (Refseq NM_005177.3): −0.04497 | CEBPB expression fc (Refseq NM_005194.2, cultured human skeletal muscle): 0.2783 | ETS1 fc (Refseq NM_005238.2): −0.1783 | FAT1 fc (Refseq NM_005245.3): 0.4055 | GPR37 expression fc (Refseq NM_005302.2): 0.2151 | H1F0 expression fc (Refseq NM_005318.2, cultured human skeletal muscle): 0.5004 | HSPA1A expression fc (Refseq NM_005345.4): −0.02035 | HSPA1B expression fc (Refseq NM_005346.3): 0.359 | NEFM expression fc (Refseq NM_005382.1): 0.8485 | SHMT2 fc (Refseq NM_005412.4): 0.2615 | STAT2 expression fc (Refseq NM_005419.2, cultured human skeletal muscle): 0.1861 | EOMES expression fc (Refseq NM_005442.2): 0.06484 | TOM1 fc (Refseq NM_005488.1): 4.81E−05 | HLA-B expression fc (Refseq NM_005514.5, cultured human skeletal muscle): 0.3367 | HLA-E fc (Refseq NM_005516.4): 0.8147 | IFI16 expression fc (Refseq NM_005531.1, cultured human skeletal muscle): 0.6846 | IFI27 expression fc (Refseq NM_005532.3, cultured human skeletal muscle): 0.2746 | IFI35 expression fc (Refseq NM_005533.2, cultured human skeletal muscle): 0.9169 | IRS1 fc (Refseq NM_005544.1): 0.2753 | KLC1 expression fc (Refseq NM_005552.4): −0.06609 | RGS4 expression fc (Refseq NM_005613.3): −0.4837 | SGK expression fc (Refseq NM_005627.2): −0.1104 | TAF4B expression fc (Refseq NM_005640.1): −0.0444 | fc of TERF2 (expression array) (Refseq NM_005652.2): 0.3314 | fc of REEP5 (expression array) (Refseq NM_005669.4): −1.138 | fc of HIPK3 (expression array) (Refseq NM_005734.3): 1.555 | ARIH1 expression fc (Refseq NM_005744.2): 0.784 | fc of NAMPT (expression array) (Refseq NM_005746.2): 1.21 | LHFPL2 fc (Refseq NM_005779.1): −0.1437 | STX6 expression fc (Refseq NM_005819.4): −0.4696 | fc of RCAN2 (expression array) (Refseq NM_005822.2): −1.005 | MFGE8 fc (Refseq NM_005928.1): 0.03254 | MT1X expression fc (Refseq NM_005952.2, cultured human skeletal muscle): 0.3162 | SNAI1 expression fc (Refseq NM_005985.2): −0.03657 | RBM12 expression fc (Refseq NM_006047.4): −0.3748 | TRIM22 expression fc (Refseq NM_006074.3, cultured human skeletal muscle): −0.01965 | CBARA1 expression fc (Refseq NM_006077.2): −0.1543 | TUBB2C expression fc (Refseq NM_006088.5): −0.5391 | LASP1 fc (Refseq NM_006148.1): −0.4552 | NFE2L2 fc (Refseq NM_006164.2): 0.329 | OAS3 expression fc (Refseq NM_006187.2, cultured human skeletal muscle): 0.8654 | fc of PDGFRL (expression array) (Refseq NM_006207.1): 1.203 | PSME1 fc (Refseq NM_006263.2): 0.2775 | STK3 expression fc (Refseq NM_006281.2): −0.215 | THY1 fc (Refseq NM_006288.2): −0.6444 | TNFAIP3 expression fc (Refseq NM_006290.2, cultured human skeletal muscle): 0.2793 | HSPB3 expression fc (Refseq NM_006308.1): −0.7934 | NXF1 expression fc (Refseq NM_006362.4): −0.3456 | fc of ATG7 (expression array) (Refseq NM_006395.1): 0.2083 | SLC34A2 expression fc (Refseq NM_006424.2): −0.03231 | TXNRD2 fc (Refseq NM_006440.3): −0.1666 | fc of MXD4 (expression array) (Refseq NM_006454.2): −0.9168 | ARID3B expression fc (Refseq NM_006465.2): −0.07455 | TXNIP expression fc (Refseq NM_006472.2, cultured human skeletal muscle): −0.01014 | ZNF217 expression fc (Refseq NM_006526.2): −0.3262 | FAM189B fc (Refseq NM_006589.2): 0.04019 | fc of TCFL5 (expression array) (Refseq NM_006602.2): 0.0336 | RFPL2 expression fc (Refseq NM_006605.1): 0.03122 | fc of NES (expression array) (Refseq NM_006617.1): −1.118 | HSPH1 expression fc (Refseq NM_006644.2): −0.4879 | HCP5 fc (Refseq NM_006674.2): 0.1443 | UGP2 fc (Refseq NM_006759.3): 0.1108 | IFI44L expression fc (Refseq NM_006820.1, cultured human skeletal muscle): 0.4651 | fc of CKAP4 (expression array) (Refseq NM_006825.2): 0.03538 | fc of ILVBL (expression array) (Refseq NM_006844.3): −0.2803 | KDELR3 fc (Refseq NM_006855.2): −0.444 | fc of GMPR (expression array) (Refseq NM_006877.2): 1.36 | SLC2A3 expression fc (Refseq NM_006931.1): 0.1012 | fc of HSPA13 (expression array) (Refseq NM_006948.4): 1.34 | ZBTB25 fc (Refseq NM_006977.2): 0.3463 | ADAMTS1 fc (Refseq NM_006988.3): 0.1765 | C1Oorf10 expression fc (Refseq NM_007021.2, cultured human skeletal muscle): 0.1432 | fc of DNAJB4 (expression array) (Refseq NM_007034.3): 0.413 | KATNA1 expression fc (Refseq NM_007044.2): 0.1132 | UBL3 expression fc (Refseq NM_007106.2): −0.807 | TESK2 expression fc (Refseq NM_007170.2): 0.1269 | NUP50 expression fc (Refseq NM_007172.3): 1.035 | fc of PACSIN2 (expression array) (Refseq NM_007229.1): −0.3253 | DUSP12 expression fc (Refseq NM_007240.1): 0.09869
